The target in experiment [1] is cynomolgus monkey IL-2 receptor alpha (IL-2Rα) (cynomolgus monkey). Kind of experiment: BLI; Octet; who was immobilised, temperature and buffer are not told. On the technique in general: BLI is a label-free optical method that tracks binding on a fibre tip over time.
Experiment [2] deals with cynomolgus monkey IL-2 receptor beta and gamma (IL-2Rβγ) complex (cynomolgus monkey) (UniProt Q38J85). The experiment is described as above.

pKd: −log10 of the molar value.

On to “recombinant human IL-2 (from UniProt P60568 21-153) (ligand)”, for which the pKd is 7.70 in experiment [1] and 8.89 in experiment [2].

As usually defined, the pKd is the Kd on a negative log10 scale, so that one unit is a factor of ten.

The record behind these values is publication PMC11880808.
